Biological target: Spa2(281-535) (S. cerevisiae (budding yeast)) (UniProt P23201)
Test: AUC; sedimentation velocity; 20 mM HEPES pH 7.4, 50 mM NaCl, 20 °C; Spa2(281-535) 18 μM, Spa2(1-535) 13 μM, Spa2(1-281) 17 μM

stoichiometry N: 2
Substance: Spa2(281-535) (from UniProt P23201 281-535) (domain or fragment)
